Results as given in IntAct's records for PubMed 29892012.

B1: Glutaredoxin-3 (Homo sapiens), O76003 (parent)
chain: MAAGAAEAAVAAVEEVGSAGQFEELLRLKAKSLLVVHFWAPWAPQCAQMNEVMAELAKELPQVSFVKLEAEGVPEVSEKYEISSVPTFLFFKNSQKIDRLDGAHAPELTKKVQRHASSGSFLPSANEHLKEDLNLRLKKLTHAAPCMLFMKGTPQEPRCGFSKQMVEILHKHNIQFSSFDIFSDEEVRQGLKAYSSWPTYPQLYVSGELIGGLDIIKELEASEELDTICPKAPKLEERLKVLTNKASVMLFMKGNKQEAKCGFSKQILEILNSTGVEYETFDILEDEEVRQGLKAYSNWPTYPQLYVKGELVGGLDIVKELKENGELLPILRGEN
partner: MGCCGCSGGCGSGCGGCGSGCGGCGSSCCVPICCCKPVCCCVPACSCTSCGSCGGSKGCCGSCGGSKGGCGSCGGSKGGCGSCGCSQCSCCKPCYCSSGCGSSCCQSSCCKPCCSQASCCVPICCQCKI
B2: Glutaredoxin-3 (Homo sapiens), O76003 (parent)
chain: B1 chain
partner: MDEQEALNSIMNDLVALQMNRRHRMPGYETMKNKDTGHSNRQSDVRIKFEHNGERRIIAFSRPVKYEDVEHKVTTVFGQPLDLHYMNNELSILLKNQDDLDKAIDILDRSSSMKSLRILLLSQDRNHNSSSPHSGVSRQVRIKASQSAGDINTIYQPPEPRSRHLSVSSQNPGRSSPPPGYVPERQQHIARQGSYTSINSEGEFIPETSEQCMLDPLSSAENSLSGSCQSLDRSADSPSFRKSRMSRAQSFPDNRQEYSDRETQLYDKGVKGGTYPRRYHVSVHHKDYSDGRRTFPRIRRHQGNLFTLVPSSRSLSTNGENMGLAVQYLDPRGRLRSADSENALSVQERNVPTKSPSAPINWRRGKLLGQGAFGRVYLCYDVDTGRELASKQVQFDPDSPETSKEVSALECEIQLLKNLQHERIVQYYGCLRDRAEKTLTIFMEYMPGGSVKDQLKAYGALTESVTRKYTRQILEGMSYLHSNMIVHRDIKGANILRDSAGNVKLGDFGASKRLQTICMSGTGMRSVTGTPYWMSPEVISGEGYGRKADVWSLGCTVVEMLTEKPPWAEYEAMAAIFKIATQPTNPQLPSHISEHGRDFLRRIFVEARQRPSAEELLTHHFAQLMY
B3: Chaperone Ric-8A (Homo sapiens), Q9NPQ8 (parent)
chain: MEPRAVAEAVETGEEDVIMEALRSYNQEHSQSFTFDDAQQEDRKRLAELLVSVLEQGLPPSHRVIWLQSVRILSRDRNCLDPFTSRQSLQALACYADISVSEGSVPESADMDVVLESLKCLCNLVLSSPVAQMLAAEARLVVKLTERVGLYRERSFPHDVQFFDLRLLFLLTALRTDVRQQLFQELKGVRLLTDTLELTLGVTPEGNPPPTLLPSQETERAMEILKVLFNITLDSIKGEVDEEDAALYRHLGTLLRHCVMIATAGDRTEEFHGHAVNLLGNLPLKCLDVLLTLEPHGDSTEFMGVNMDVIRALLIFLEKRLHKTHRLKESVAPVLSVLTECARMHRPARKFLKAQVLPPLRDVRTRPEVGEMLRNKLVRLMTHLDTDVKRVAAEFLFVLCSESVPRFIKYTGYGNAAGLLAARGLMAGGRPEGQYSEDEDTDTDEYKEAKASINPVTGRVEEKPPNPMEGMTEEQKEHEAMKLVTMFDKLSRNRVIQPMGMSPRGHLTSLQDAMCETMEQQLSSDPDSDPD
B4: Glutaredoxin-3 (Homo sapiens), O76003 (parent)
chain: B1 chain
partner: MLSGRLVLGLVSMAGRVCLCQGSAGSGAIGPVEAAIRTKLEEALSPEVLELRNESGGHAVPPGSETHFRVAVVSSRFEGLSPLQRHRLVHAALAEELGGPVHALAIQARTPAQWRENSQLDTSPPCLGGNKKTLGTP
B5: Glutaredoxin-3 (Homo sapiens), O76003 (parent)
chain: B1 chain

Variants of: B1
Details: with kra56_human KRTAP5-6, Q6L8G9

Variant | effect of a mutation on the interaction
MAAGAAEAAVAAVEEVGSAGQFEELLRLKAKSLLVVHFWAPWAPQCAQMNEVMAELAKELPQVSFVKLEAEGVPEVSEKYEISSVPTFLFFKNSQKIDRLDGAHAPELTKKVQRHASSGSFLPSANEHLKEDLNLRLKKLTHAAACMLFMKGTPQEPRCGFSKQMVEILHKHNIQFSSFDIFSDEEVRQGLKAYSSWPTYPQLYVSGELIGGLDIIKELEASEELDTICPKAPKLEERLKVLTNKASVMLFMKGNKQEAKCGFSKQILEILNSTGVEYETFDILEDEEVRQGLKAYSNWPTYPQLYVKGELVGGLDIVKELKENGELLPILRGEN [P145A] | with no effect

Variants of: B2
Details: with m3k3_human MAP3K3, Q99759

Variant | effect of a mutation on the interaction
MAAGAAEAAVAAVEEVGSAGQFEELLRLKAKSLLVVHFWAPWAPQCAQMNEVMAELAKELPQVSFVKLEAEGVPEVSEKYEISSVPTFLFFKNSQKIDRLDGAHAPELTKKVQRHASSGSFLPSANEHLKEDLNLRLKKLTHAAACMLFMKGTPQEPRCGFSKQMVEILHKHNIQFSSFDIFSDEEVRQGLKAYSSWPTYPQLYVSGELIGGLDIIKELEASEELDTICPKAPKLEERLKVLTNKASVMLFMKGNKQEAKCGFSKQILEILNSTGVEYETFDILEDEEVRQGLKAYSNWPTYPQLYVKGELVGGLDIVKELKENGELLPILRGEN [P145A] | with no effect

Variants of: B3
Details: with praf1_human RABAC1, Q9UI14
Sequence of praf1_human RABAC1, Q9UI14 (Q9UI14 whole entry): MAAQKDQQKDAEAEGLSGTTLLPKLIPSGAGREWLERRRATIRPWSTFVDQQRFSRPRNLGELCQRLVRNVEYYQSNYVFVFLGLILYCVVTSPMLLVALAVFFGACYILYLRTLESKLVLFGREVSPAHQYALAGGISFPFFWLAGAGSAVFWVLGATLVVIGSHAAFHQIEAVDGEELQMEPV

Variant | effect of a mutation on the interaction
MEPRAVAEAVETGEEDVIMEALRSYNQEHSQSFTFDDAQQEDRKRLAELLVSVLEQGLPPSHRVIWLQSVRILSRDRNCLDPFTSRQSLQALACYADISVSEGSVPESADMDVVLESLKCLCNLVLSSPVAQMLAAEARLVVKLTERVGLYRERSFPHDVQFFDLRLLFLLTALRTDVRQQLFQELKGVRLLTDTLELTLGVTPEGNPPPTLLPSQETERAMEILKVLFNITLDSIKGEVDEEDAALYRHLGTLLRHCVMIATAGDRTEEFHGHAVNLLGNLPLKCLDVLLTLEPHGDSTEFMGVNMDVIRALLIFLEERLHKTHRLKESVAPVLSVLTECARMHRPARKFLKAQVLPPLRDVRTRPEVGEMLRNKLVRLMTHLDTDVKRVAAEFLFVLCSESVPRFIKYTGYGNAAGLLAARGLMAGGRPEGQYSEDEDTDTDEYKEAKASINPVTGRVEEKPPNPMEGMTEEQKEHEAMKLVTMFDKLSRNRVIQPMGMSPRGHLTSLQDAMCETMEQQLSSDPDSDPD [K319E] | with no effect

Variants of: B3
Details: with ubql1_human UBQLN1, Q9UMX0
Sequence of ubql1_human UBQLN1, Q9UMX0 (Q9UMX0 whole entry): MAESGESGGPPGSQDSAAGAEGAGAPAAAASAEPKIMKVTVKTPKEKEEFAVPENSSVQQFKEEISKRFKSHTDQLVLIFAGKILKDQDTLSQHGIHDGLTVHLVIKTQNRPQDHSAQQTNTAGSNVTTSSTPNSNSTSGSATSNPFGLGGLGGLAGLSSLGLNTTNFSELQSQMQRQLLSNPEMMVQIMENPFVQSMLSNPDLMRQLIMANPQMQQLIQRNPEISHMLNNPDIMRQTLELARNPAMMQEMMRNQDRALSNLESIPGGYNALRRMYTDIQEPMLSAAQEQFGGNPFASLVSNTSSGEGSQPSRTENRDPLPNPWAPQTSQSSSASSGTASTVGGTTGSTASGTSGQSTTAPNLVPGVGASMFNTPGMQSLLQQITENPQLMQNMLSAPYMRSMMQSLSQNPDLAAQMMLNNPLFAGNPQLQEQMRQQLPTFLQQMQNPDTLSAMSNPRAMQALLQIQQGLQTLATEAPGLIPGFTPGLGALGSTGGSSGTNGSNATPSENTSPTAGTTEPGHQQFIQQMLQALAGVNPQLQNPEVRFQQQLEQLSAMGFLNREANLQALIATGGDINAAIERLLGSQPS

Variant | effect of a mutation on the interaction
MEPRAVAEAVETGEEDVIMEALRSYNQEHSQSFTFDDAQQEDRKRLAELLVSVLEQGLPPSHRVIWLQSVRILSRDRNCLDPFTSRQSLQALACYADISVSEGSVPESADMDVVLESLKCLCNLVLSSPVAQMLAAEARLVVKLTERVGLYRERSFPHDVQFFDLRLLFLLTALRTDVRQQLFQELKGVRLLTDTLELTLGVTPEGNPPPTLLPSQETERAMEILKVLFNITLDSIKGEVDEEDAALYRHLGTLLRHCVMIATAGDRTEEFHGHAVNLLGNLPLKCLDVLLTLEPHGDSTEFMGVNMDVIRALLIFLEERLHKTHRLKESVAPVLSVLTECARMHRPARKFLKAQVLPPLRDVRTRPEVGEMLRNKLVRLMTHLDTDVKRVAAEFLFVLCSESVPRFIKYTGYGNAAGLLAARGLMAGGRPEGQYSEDEDTDTDEYKEAKASINPVTGRVEEKPPNPMEGMTEEQKEHEAMKLVTMFDKLSRNRVIQPMGMSPRGHLTSLQDAMCETMEQQLSSDPDSDPD [K319E] | with no effect

Variants of: B3
Details: with sdcb1_human SDCBP

Variant | effect of a mutation on the interaction
MEPRAVAEAVETGEEDVIMEALRSYNQEHSQSFTFDDAQQEDRKRLAELLVSVLEQGLPPSHRVIWLQSVRILSRDRNCLDPFTSRQSLQALACYADISVSEGSVPESADMDVVLESLKCLCNLVLSSPVAQMLAAEARLVVKLTERVGLYRERSFPHDVQFFDLRLLFLLTALRTDVRQQLFQELKGVRLLTDTLELTLGVTPEGNPPPTLLPSQETERAMEILKVLFNITLDSIKGEVDEEDAALYRHLGTLLRHCVMIATAGDRTEEFHGHAVNLLGNLPLKCLDVLLTLEPHGDSTEFMGVNMDVIRALLIFLEERLHKTHRLKESVAPVLSVLTECARMHRPARKFLKAQVLPPLRDVRTRPEVGEMLRNKLVRLMTHLDTDVKRVAAEFLFVLCSESVPRFIKYTGYGNAAGLLAARGLMAGGRPEGQYSEDEDTDTDEYKEAKASINPVTGRVEEKPPNPMEGMTEEQKEHEAMKLVTMFDKLSRNRVIQPMGMSPRGHLTSLQDAMCETMEQQLSSDPDSDPD [K319E] | with no effect

Variants of: B3
Details: with nutm1_human NUTM1, Q86Y26
Sequence of nutm1_human NUTM1, Q86Y26 (Q86Y26 whole entry): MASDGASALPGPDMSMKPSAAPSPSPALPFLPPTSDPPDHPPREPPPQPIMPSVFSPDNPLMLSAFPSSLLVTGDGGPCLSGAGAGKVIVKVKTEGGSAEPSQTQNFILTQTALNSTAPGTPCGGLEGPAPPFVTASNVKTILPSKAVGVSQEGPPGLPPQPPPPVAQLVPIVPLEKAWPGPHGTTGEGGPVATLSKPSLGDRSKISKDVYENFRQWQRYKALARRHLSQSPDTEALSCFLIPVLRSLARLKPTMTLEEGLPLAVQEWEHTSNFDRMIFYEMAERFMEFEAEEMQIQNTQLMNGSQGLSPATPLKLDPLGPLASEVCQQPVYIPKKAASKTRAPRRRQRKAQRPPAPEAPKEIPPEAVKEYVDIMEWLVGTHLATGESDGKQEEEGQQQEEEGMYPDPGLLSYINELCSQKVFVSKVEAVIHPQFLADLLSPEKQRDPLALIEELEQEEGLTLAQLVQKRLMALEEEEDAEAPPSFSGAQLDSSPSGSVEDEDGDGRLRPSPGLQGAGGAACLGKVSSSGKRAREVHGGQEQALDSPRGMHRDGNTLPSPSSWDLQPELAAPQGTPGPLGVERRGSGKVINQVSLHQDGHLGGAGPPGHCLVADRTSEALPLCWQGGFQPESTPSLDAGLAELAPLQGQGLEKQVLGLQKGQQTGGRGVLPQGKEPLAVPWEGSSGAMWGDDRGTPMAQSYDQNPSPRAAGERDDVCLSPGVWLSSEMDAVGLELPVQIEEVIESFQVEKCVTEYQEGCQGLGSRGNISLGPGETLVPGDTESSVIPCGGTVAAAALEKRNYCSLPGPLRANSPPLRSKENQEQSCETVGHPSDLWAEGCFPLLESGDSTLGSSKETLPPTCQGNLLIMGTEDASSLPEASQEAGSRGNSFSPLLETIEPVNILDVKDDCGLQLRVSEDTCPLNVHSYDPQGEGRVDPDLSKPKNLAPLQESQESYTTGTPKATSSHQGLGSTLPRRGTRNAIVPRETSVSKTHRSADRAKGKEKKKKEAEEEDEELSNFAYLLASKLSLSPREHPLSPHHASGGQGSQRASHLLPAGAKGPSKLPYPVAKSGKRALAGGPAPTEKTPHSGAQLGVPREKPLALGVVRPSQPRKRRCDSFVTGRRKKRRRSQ

Variant | effect of a mutation on the interaction
MEPRAVAEAVETGEEDVIMEALRSYNQEHSQSFTFDDAQQEDRKRLAELLVSVLEQGLPPSHRVIWLQSVRILSRDRNCLDPFTSRQSLQALACYADISVSEGSVPESADMDVVLESLKCLCNLVLSSPVAQMLAAEARLVVKLTERVGLYRERSFPHDVQFFDLRLLFLLTALRTDVRQQLFQELKGVRLLTDTLELTLGVTPEGNPPPTLLPSQETERAMEILKVLFNITLDSIKGEVDEEDAALYRHLGTLLRHCVMIATAGDRTEEFHGHAVNLLGNLPLKCLDVLLTLEPHGDSTEFMGVNMDVIRALLIFLEERLHKTHRLKESVAPVLSVLTECARMHRPARKFLKAQVLPPLRDVRTRPEVGEMLRNKLVRLMTHLDTDVKRVAAEFLFVLCSESVPRFIKYTGYGNAAGLLAARGLMAGGRPEGQYSEDEDTDTDEYKEAKASINPVTGRVEEKPPNPMEGMTEEQKEHEAMKLVTMFDKLSRNRVIQPMGMSPRGHLTSLQDAMCETMEQQLSSDPDSDPD [K319E] | with no effect

Variants of: B4
Details: with bola1_human BOLA1, Q9Y3E2

Variant | effect of a mutation on the interaction
MAAGAAEAAVAAVEEVGSAGQFEELLRLKAKSLLVVHFWAPWAPQCAQMNEVMAELAKELPQVSFVKLEAEGVPEVSEKYEISSVPTFLFFKNSQKIDRLDGAHAPELTKKVQRHASSGSFLPSANEHLKEDLNLRLKKLTHAAACMLFMKGTPQEPRCGFSKQMVEILHKHNIQFSSFDIFSDEEVRQGLKAYSSWPTYPQLYVSGELIGGLDIIKELEASEELDTICPKAPKLEERLKVLTNKASVMLFMKGNKQEAKCGFSKQILEILNSTGVEYETFDILEDEEVRQGLKAYSNWPTYPQLYVKGELVGGLDIVKELKENGELLPILRGEN [P145A] | with no effect

Variants of: B5
Details: with grn_human GRN

Variant | effect of a mutation on the interaction
MAAGAAEAAVAAVEEVGSAGQFEELLRLKAKSLLVVHFWAPWAPQCAQMNEVMAELAKELPQVSFVKLEAEGVPEVSEKYEISSVPTFLFFKNSQKIDRLDGAHAPELTKKVQRHASSGSFLPSANEHLKEDLNLRLKKLTHAAACMLFMKGTPQEPRCGFSKQMVEILHKHNIQFSSFDIFSDEEVRQGLKAYSSWPTYPQLYVSGELIGGLDIIKELEASEELDTICPKAPKLEERLKVLTNKASVMLFMKGNKQEAKCGFSKQILEILNSTGVEYETFDILEDEEVRQGLKAYSNWPTYPQLYVKGELVGGLDIVKELKENGELLPILRGEN [P145A] | with no effect

Variants of: B5
Details: with cpin1_human CIAPIN1, Q6FI81
Sequence of cpin1_human CIAPIN1, Q6FI81 (Q6FI81 whole entry): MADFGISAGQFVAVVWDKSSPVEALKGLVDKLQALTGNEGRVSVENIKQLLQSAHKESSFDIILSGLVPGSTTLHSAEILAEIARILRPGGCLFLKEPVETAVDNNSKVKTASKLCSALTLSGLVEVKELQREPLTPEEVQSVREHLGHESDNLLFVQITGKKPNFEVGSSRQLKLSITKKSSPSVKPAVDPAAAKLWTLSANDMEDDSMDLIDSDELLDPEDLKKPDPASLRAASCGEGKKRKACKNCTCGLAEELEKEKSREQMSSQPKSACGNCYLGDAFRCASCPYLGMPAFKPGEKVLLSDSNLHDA

Variant | effect of a mutation on the interaction
MAAGAAEAAVAAVEEVGSAGQFEELLRLKAKSLLVVHFWAPWAPQCAQMNEVMAELAKELPQVSFVKLEAEGVPEVSEKYEISSVPTFLFFKNSQKIDRLDGAHAPELTKKVQRHASSGSFLPSANEHLKEDLNLRLKKLTHAAACMLFMKGTPQEPRCGFSKQMVEILHKHNIQFSSFDIFSDEEVRQGLKAYSSWPTYPQLYVSGELIGGLDIIKELEASEELDTICPKAPKLEERLKVLTNKASVMLFMKGNKQEAKCGFSKQILEILNSTGVEYETFDILEDEEVRQGLKAYSNWPTYPQLYVKGELVGGLDIVKELKENGELLPILRGEN [P145A] | with no effect

Variants of: B5
Details: with tmm25_human TMEM25, Q86YD3
Sequence of tmm25_human TMEM25, Q86YD3 (Q86YD3 whole entry): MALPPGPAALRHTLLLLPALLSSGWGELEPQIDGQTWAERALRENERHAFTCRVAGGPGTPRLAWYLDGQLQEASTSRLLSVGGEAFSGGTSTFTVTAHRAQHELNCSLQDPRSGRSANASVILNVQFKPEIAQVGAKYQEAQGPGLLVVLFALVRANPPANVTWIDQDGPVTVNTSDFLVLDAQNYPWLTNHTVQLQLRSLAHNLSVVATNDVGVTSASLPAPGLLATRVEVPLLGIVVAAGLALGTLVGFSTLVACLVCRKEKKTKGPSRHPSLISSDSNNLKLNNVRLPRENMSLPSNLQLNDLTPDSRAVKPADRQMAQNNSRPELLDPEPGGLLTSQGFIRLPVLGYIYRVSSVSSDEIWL

Variant | effect of a mutation on the interaction
MAAGAAEAAVAAVEEVGSAGQFEELLRLKAKSLLVVHFWAPWAPQCAQMNEVMAELAKELPQVSFVKLEAEGVPEVSEKYEISSVPTFLFFKNSQKIDRLDGAHAPELTKKVQRHASSGSFLPSANEHLKEDLNLRLKKLTHAAACMLFMKGTPQEPRCGFSKQMVEILHKHNIQFSSFDIFSDEEVRQGLKAYSSWPTYPQLYVSGELIGGLDIIKELEASEELDTICPKAPKLEERLKVLTNKASVMLFMKGNKQEAKCGFSKQILEILNSTGVEYETFDILEDEEVRQGLKAYSNWPTYPQLYVKGELVGGLDIVKELKENGELLPILRGEN [P145A] | with no effect
